The supplement of paper PMC7877785
± gives the uncertainty stated by the source.

Test: self-splicing fitness, log relative to wild type (ln ratio); higher = more splicing; Tetrahymena group I intron in knt gene, E. coli kanamycin selection, DiMSum; sequences stand for … in CUCUCU…GGAGGGAAAAGUUAUCAGGCAUGCACCUGGUAGCUAGUCUUUAAACCAAUAGAUUGCAUCGGUUUAAAAGGCAAGACCGUCAAAUUGCGGGAAAGGGGUCAACAGCCGUUCAGUACCAAGUCUCAGGGGAAACUUUGAGAUGGCCUUGCAAAGGGUAUGGUAAUAAGCUGACGGACAUGGUCCUAACCACGCAGCCAAGUCCUAAGUCAACAGAUCUUCUGUUGAUAUGGAUGCAGUUCACAGACUAAAUGUCGGUCGGGGAAGAUGUAUUCUUCUCAUAAGAUAUAGUCGGACCUCUCCUUAAUGGGAGCUAGCGGAUGAAGUGAUGCAACACUGGAGCCGCUGGGAACUAAUUUGUAUGCGAAAGUAUAUUGAUUAGUUUUGGAGUACUCGUGGUCG
In short: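 Pooled colonies went to amplicon sequencing on an Illumina HiSeq 2500 after six replicate transformations. The plates were LB agar with 100 μg/mL carbenicillin, 50 μM IPTG and 0.2% rhamnose, with or without 25 μg/mL kanamycin, incubated overnight at 37°C or 30°C. The E. coli BL21(DE3) library had all eight P1ex-region intron nucleotides randomised, the intron placed in the knt kanamycin-resistance gene on pET-22b(+). DiMSum fitness is the error-weighted combination of replicate fold changes, kanamycin against none, normalised to wild type.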

| Sequence | self-splicing fitness (ln) (30 °C) | self-splicing fitness (ln) (37 °C) |
| --- | --- | --- |
| CUAUAGCAAUAUUACGUGUU | -3.74 ± 0.16 | -3.15 ± 0.27 |
| CUAUAGCAAUAUUACGUUCA | -2.87 ± 0.24 | -2.93 ± 0.35 |
| CUCAAGCAAUAUUACGACCA |  | -0.985 ± 0.26 |
| CUCAAGCAAUAUUACGAGCA |  | -2.49 ± 0.33 |
| CUCAAGCAAUAUUACGAGUU | -3.34 ± 0.15 | -2.52 ± 0.15 |
| CUCAAGCAAUAUUACGAUAU | -2.97 ± 0.14 | -1.61 ± 0.14 |
| CUCAAGCAAUAUUACGCAGG | -2.99 ± 0.23 | -2.84 ± 0.31 |
| CUCAAGCAAUAUUACGCAUC | -3.63 ± 0.23 | -2.3 ± 0.25 |
| CUCAAGCAAUAUUACGGCAG | -2.26 ± 0.068 | -0.745 ± 0.092 |
| CUCAAGCAAUAUUACGGCGU | -2.09 ± 0.23 | -2.39 ± 0.46 |
| CUCAAGCAAUAUUACGGGCU | -4.09 ± 0.27 | -3 ± 0.26 |
| CUCAAGCAAUAUUACGGGGU | -3.4 ± 0.15 | -3.44 ± 0.19 |
| CUCAAGCAAUAUUACGGGUU | -3.49 ± 0.17 | -1.4 ± 0.13 |
| CUCAAGCAAUAUUACGUAUC | -2.94 ± 0.14 | -1.79 ± 0.14 |
| CUCAAGCAAUAUUACGUCGC | -4.2 ± 0.39 | -2.27 ± 0.33 |
| CUCAAGCAAUAUUACGUCUA | -3.15 ± 0.16 | -2.07 ± 0.14 |
| CUCAAGCAAUAUUACGUCUG | -4.24 ± 0.28 | -1.36 ± 0.17 |
| CUCAAGCAAUAUUACGUUAC | -4.46 ± 0.31 | -3.47 ± 0.29 |
| CUCAAGCAAUAUUACGUUAG | -2.26 ± 0.062 | -1.47 ± 0.075 |
| CUCAAGCAAUAUUACGUUAU | -3.81 ± 0.15 | -3.39 ± 0.2 |
| CUCAAGCAAUAUUACGUUCU | -3.9 ± 0.19 | -2.68 ± 0.17 |
| CUCAAGCAAUAUUACGUUUA | -3.93 ± 0.24 | -2.65 ± 0.16 |

| Sequence | self-splicing fitness (ln) (30 °C) | self-splicing fitness (ln) (37 °C) |
| --- | --- | --- |
| CUCCAGCAAUAUUACGAAAU | -2.83 ± 0.19 | -1.75 ± 0.31 |
| CUCCAGCAAUAUUACGAAGG | -3.5 ± 0.32 | -2.13 ± 0.23 |
| CUCCAGCAAUAUUACGACAC | -2.74 ± 0.33 | -1.12 ± 0.34 |
| CUCCAGCAAUAUUACGAUCU | -4.21 ± 0.27 | -1.16 ± 0.12 |
| CUCCAGCAAUAUUACGAUUA | -2.63 ± 0.32 | -2.37 ± 0.37 |
| CUCCAGCAAUAUUACGCAGA | -3.72 ± 0.35 | -1.94 ± 0.2 |
| CUCCAGCAAUAUUACGCUAG | -3.91 ± 0.17 | -2.7 ± 0.2 |
| CUCCAGCAAUAUUACGGAGC | -1.83 ± 0.12 | -2.69 ± 0.2 |
| CUCCAGCAAUAUUACGGAGU | -4.09 ± 0.31 | -1.28 ± 0.19 |
| CUCCAGCAAUAUUACGGAUC | -1.86 ± 0.099 | -1.47 ± 0.14 |
| CUCCAGCAAUAUUACGGAUU | -2.59 ± 0.26 | -2.07 ± 0.18 |
| CUCCAGCAAUAUUACGGCCA | -2.94 ± 0.25 |  |
| CUCCAGCAAUAUUACGGCUU | -1.73 ± 0.19 | -2.76 ± 0.31 |
| CUCCAGCAAUAUUACGGGAU | -2.92 ± 0.11 | -1.18 ± 0.1 |
| CUCCAGCAAUAUUACGGUUU | -2.02 ± 0.11 | -2.39 ± 0.19 |
| CUCCAGCAAUAUUACGUAAU | -4.88 ± 0.23 | -3.21 ± 0.2 |
| CUCCAGCAAUAUUACGUCAA | -3.08 ± 0.19 | -3.24 ± 0.23 |
| CUCCAGCAAUAUUACGUCGA | -4.42 ± 0.27 | -2.73 ± 0.17 |
| CUCCAGCAAUAUUACGUGUA | -2.95 ± 0.14 | -2.82 ± 0.19 |
| CUCCAGCAAUAUUACGUUAC | -3.6 ± 0.18 | -2.42 ± 0.2 |
| CUCCAGCAAUAUUACGUUCA | -3.32 ± 0.29 | -2.85 ± 0.25 |
